test system: Escherichia coli TOP10; test: shrunken log2 fold change of peptide-encoding DNA abundance (4.5 h post-induction vs induction); higher = less antimicrobial activity (less host growth inhibition); details: time post-induction: 4.5 h; library: site-saturation at positions 5, 18, 19, 20
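Further: peptides expressed intracellularly from a pBAD plasmid library in pooled LB shake-flask culture, induced with 0.3% L-arabinose, DNA abundance read by NGS, three biological replicates, DESeq2 with apeglm shrinkage.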

Sequence | shrunken log2 fold change
RRIRTRPPRLPRPRPRPIRIPRP | -0.202
RRIRPRPPRLPRPRPRPENPPRP | 0.0677
RRIRTRPPRLPRPRPRPPSYPRP | -0.0622
RRIRFRPPRLPRPRPRPVCSPRP | -0.279
RRIRDRPPRLPRPRPRPPDTPRP | 0.662
RRIRLRPPRLPRPRPRPASMPRP | -0.357
RRIRFRPPRLPRPRPRPEPWPRP | 0.172
RRIRKRPPRLPRPRPRPYKQPRP | -0.0754
RRIRHRPPRLPRPRPRPRLFPRP | 0.164
RRIRKRPPRLPRPRPRPSYNPRP | -0.397
RRIRTRPPRLPRPRPRPPEEPRP | -0.00968
RRIRNRPPRLPRPRPRPKYYPRP | -0.887
RRIRARPPRLPRPRPRPMDVPRP | 0.241
RRIRGRPPRLPRPRPRPQNFPRP | 0.136
RRIRGRPPRLPRPRPRPGYVPRP | -0.00987
RRIRNRPPRLPRPRPRPTSTPRP | -0.7
RRIRRRPPRLPRPRPRPNQPPRP | -0.0317
RRIRKRPPRLPRPRPRPGITPRP | 0.266
RRIRNRPPRLPRPRPRPVNPPRP | -0.216
RRIRWRPPRLPRPRPRPEQPPRP | 0.157
RRIRRRPPRLPRPRPRPVWPPRP | 0.36
RRIRNRPPRLPRPRPRPTHCPRP | 0.085
RRIRYRPPRLPRPRPRPIILPRP | -0.605
RRIRVRPPRLPRPRPRPPSFPRP | 0.0364
RRIRGRPPRLPRPRPRPKEVPRP | 0.00437

Sequence | shrunken log2 fold change
RRIRVRPPRLPRPRPRPPPSPRP | 0.897
RRIRCRPPRLPRPRPRPEFKPRP | 0.0244
RRIRHRPPRLPRPRPRPSDFPRP | 0.00333
RRIRRRPPRLPRPRPRPYDNPRP | -0.636
RRIRGRPPRLPRPRPRPCLQPRP | 0.264
RRIRYRPPRLPRPRPRPGKLPRP | -0.0944
RRIRDRPPRLPRPRPRPTTNPRP | 0.411
RRIRHRPPRLPRPRPRPGESPRP | -0.0414
RRIRERPPRLPRPRPRPRIGPRP | -0.0649
RRIRLRPPRLPRPRPRPHTHPRP | -0.441
RRIRMRPPRLPRPRPRPKNNPRP | 0.311
RRIRARPPRLPRPRPRPMFLPRP | 0.00213
RRIRCRPPRLPRPRPRPAKDPRP | 0.021
RRIRARPPRLPRPRPRPAQFPRP | 0.509
RRIRMRPPRLPRPRPRPILDPRP | -0.0606
RRIRVRPPRLPRPRPRPVCHPRP | -0.29
RRIRMRPPRLPRPRPRPFSNPRP | -0.175
RRIRARPPRLPRPRPRPNWAPRP | 0.27
RRIRGRPPRLPRPRPRPAIVPRP | 0.0899
RRIRNRPPRLPRPRPRPMGAPRP | 0.115
RRIRDRPPRLPRPRPRPVGYPRP | 0.0934
RRIRYRPPRLPRPRPRPSVHPRP | -0.284
RRIRERPPRLPRPRPRPGWSPRP | 0.135
RRIRQRPPRLPRPRPRPYEPPRP | 0.00408
RRIRMRPPRLPRPRPRPTFEPRP | -0.0436

Sequence | shrunken log2 fold change
RRIRTRPPRLPRPRPRPLRTPRP | 0.26
RRIRCRPPRLPRPRPRPEYIPRP | -0.144
RRIRIRPPRLPRPRPRPTVLPRP | -0.369
RRIRSRPPRLPRPRPRPHMVPRP | -0.112
RRIRRRPPRLPRPRPRPFAGPRP | -0.0164
RRIRVRPPRLPRPRPRPPTTPRP | 0.47
RRIRGRPPRLPRPRPRPHGQPRP | 0.578
RRIRFRPPRLPRPRPRPSMVPRP | -0.509
RRIRMRPPRLPRPRPRPHPEPRP | 0.414
RRIRLRPPRLPRPRPRPHHDPRP | -0.694
RRIRKRPPRLPRPRPRPLMFPRP | 0.0317
RRIRDRPPRLPRPRPRPTDCPRP | 0.00372
RRIRGRPPRLPRPRPRPKEDPRP | 0.796
RRIRLRPPRLPRPRPRPIRHPRP | -0.144
RRIRTRPPRLPRPRPRPWFGPRP | 0.0864
RRIRCRPPRLPRPRPRPNIRPRP | -0.517
RRIRWRPPRLPRPRPRPHKVPRP | -0.431
RRIRFRPPRLPRPRPRPSAYPRP | -0.791
RRIRPRPPRLPRPRPRPKWMPRP | -0.158
RRIRKRPPRLPRPRPRPDLHPRP | -0.0392
RRIRLRPPRLPRPRPRPWCPPRP | 0.0721
RRIRFRPPRLPRPRPRPDSKPRP | -0.788
RRIRFRPPRLPRPRPRPNWKPRP | 0.0201
RRIRHRPPRLPRPRPRPMSPPRP | 0.0565
RRIRTRPPRLPRPRPRPEMIPRP | 0.0294

Sequence | shrunken log2 fold change
RRIRFRPPRLPRPRPRPGGCPRP | 0.432
RRIRWRPPRLPRPRPRPGSYPRP | -0.0955
RRIRSRPPRLPRPRPRPNSHPRP | -0.402
RRIRRRPPRLPRPRPRPDCMPRP | 0.32
RRIRARPPRLPRPRPRPIFGPRP | 0.0662
RRIRTRPPRLPRPRPRPIGAPRP | 0.089
RRIRKRPPRLPRPRPRPHPMPRP | 0.224
RRIRNRPPRLPRPRPRPSNLPRP | -0.457
RRIRARPPRLPRPRPRPTYIPRP | -0.438
RRIRCRPPRLPRPRPRPRLIPRP | 0.0496
RRIRSRPPRLPRPRPRPYPEPRP | -0.355
RRIRRRPPRLPRPRPRPRKYPRP | -0.33
RRIRSRPPRLPRPRPRPMHTPRP | -0.139
RRIRIRPPRLPRPRPRPYFTPRP | -0.702
RRIRLRPPRLPRPRPRPEDHPRP | -0.0495
RRIRYRPPRLPRPRPRPGPHPRP | -0.115
RRIRLRPPRLPRPRPRPMSCPRP | 0.0448
RRIRDRPPRLPRPRPRPIEVPRP | -0.13
RRIRKRPPRLPRPRPRPGNDPRP | 0.054
RRIRRRPPRLPRPRPRPNADPRP | 0.579
RRIRHRPPRLPRPRPRPVSCPRP | 0.011
RRIRLRPPRLPRPRPRPADEPRP | 0.167
RRIRRRPPRLPRPRPRPMQNPRP | 0.362
RRIRLRPPRLPRPRPRPKARPRP | -0.00543
RRIRNRPPRLPRPRPRPCKKPRP | -0.0371

Sequence | shrunken log2 fold change
RRIRPRPPRLPRPRPRPSAEPRP | 0.257
RRIRSRPPRLPRPRPRPQHDPRP | -0.227
RRIRPRPPRLPRPRPRPPSNPRP | -0.0339
RRIRWRPPRLPRPRPRPYRSPRP | 0.0201
RRIRERPPRLPRPRPRPNSEPRP | -0.391
RRIRGRPPRLPRPRPRPCISPRP | -0.273
RRIRVRPPRLPRPRPRPLYPPRP | -0.586
RRIRARPPRLPRPRPRPAMLPRP | 0.226
RRIRKRPPRLPRPRPRPKVSPRP | -0.0412
RRIRVRPPRLPRPRPRPITYPRP | -0.911
RRIRHRPPRLPRPRPRPYMCPRP | -0.536
RRIRVRPPRLPRPRPRPPNFPRP | 0.0102
RRIRERPPRLPRPRPRPDQCPRP | -0.308
RRIRVRPPRLPRPRPRPCVWPRP | -0.0237
RRIRKRPPRLPRPRPRPTIWPRP | 0.319
RRIRDRPPRLPRPRPRPPQKPRP | -0.0517
RRIRKRPPRLPRPRPRPEGNPRP | 2.03
RRIRFRPPRLPRPRPRPVFAPRP | 0.158
RRIRARPPRLPRPRPRPSYNPRP | -0.428
RRIRSRPPRLPRPRPRPKECPRP | -0.043
RRIRERPPRLPRPRPRPMQRPRP | -0.00559
RRIRYRPPRLPRPRPRPSVDPRP | -0.61
RRIRERPPRLPRPRPRPFFHPRP | -0.264
RRIRLRPPRLPRPRPRPAQQPRP | 0.0982
RRIRRRPPRLPRPRPRPHNRPRP | 0.0584

Sequence | shrunken log2 fold change
RRIRCRPPRLPRPRPRPNYWPRP | -0.326
RRIRGRPPRLPRPRPRPQFYPRP | 0.0417
RRIRYRPPRLPRPRPRPHFRPRP | -0.444
RRIRSRPPRLPRPRPRPDSKPRP | 1.02
RRIRARPPRLPRPRPRPYRCPRP | -0.174
RRIRMRPPRLPRPRPRPQPNPRP | 0.546
RRIRSRPPRLPRPRPRPVMAPRP | 0.304
RRIRGRPPRLPRPRPRPDSGPRP | 0.128
RRIRGRPPRLPRPRPRPKNQPRP | 0.551
RRIRHRPPRLPRPRPRPHWRPRP | 0.125
RRIRERPPRLPRPRPRPMDRPRP | 0.0196
RRIRWRPPRLPRPRPRPMMQPRP | 0.195
RRIRTRPPRLPRPRPRPGEMPRP | 0.136
RRIRMRPPRLPRPRPRPFSLPRP | -0.282
RRIRKRPPRLPRPRPRPECQPRP | 0.57
RRIRGRPPRLPRPRPRPNMCPRP | -0.0942
RRIRGRPPRLPRPRPRPSLTPRP | 0.78
RRIRIRPPRLPRPRPRPMTRPRP | -0.0885
RRIRYRPPRLPRPRPRPEHDPRP | 0.0965
RRIRFRPPRLPRPRPRPWDNPRP | -0.298
RRIRVRPPRLPRPRPRPSPTPRP | 0.0219
RRIRDRPPRLPRPRPRPYCRPRP | 0.0533
RRIRMRPPRLPRPRPRPYYMPRP | -0.0189
RRIRQRPPRLPRPRPRPAGKPRP | 0.0246
RRIRKRPPRLPRPRPRPDTEPRP | 1.13
